According to patent publication US9821050:

Molecular target: DENV2 (S-16803) intact virus, E glycoprotein on the virion (dengue virus serotype 2 (S-16803))
Assay: cell-based or functional assay

How did the Neut50 value turn out when human monoclonal antibody 2D22 was run?
Its Neut50 value is < 0.2 µg/mL.
